Source: publication PMC3764422, “A model of yeast glycolysis based on a consistent kinetic characterisation of all its enzymes” (Febs Letters, 2013)

B1: Pdc6p (Saccharomyces cerevisiae S288C) (protein)
chain: SEITLGKYLFERLKQVNVNTIFGLPGDFNLSLLDKIYEVDGLRWAGNANELNAAYAADGYARIKGLSVLVTTFGVGELSALNGIAGSYAEHVGVLHVVGVPSISAQAKQLLLHHTLGNGDFTVFHRMSANISETTSMITDIATAPSEIDRLIRTTFITQRPSYLGLPANLVDLKVPGSLLEKPIDLSLKPNDPEAEKEVIDTVLELIQNSKNPVILSDACASRHNVKKETQKLIDLTQFPAFVTPLGKGSIDEQHPRYGGVYVGTLSKQDVKQAVESADLILSVGALLSDFNTGSFSYSYKTKNVVEFHSDYVKVKNATFLGVQMKFALQNLLKVIPDVVKGYKSVPVPTKTPANKGVPASTPLKQEWLWNELSKFLQEGDVIISETGTSAFGINQTIFPKDAYGISQVLWGSIGFTTGATLGAAFAAEEIDPNKRVILFIGDGSLQLTVQEISTMIRWGLKPYLFVLNNDGYTIEKLIHGPHAEYNEIQTWDHLALLPAFGAKKYENHKIATTGEWDALTTDSEFQKNSVIRLIELKLPVFDAPESLIKQAQLTAATNAKQ
notes: tagged full-length ORF, expressed in and purified from S. cerevisiae, assayed freshly purified
B2: Eno2p (Saccharomyces cerevisiae S288C) (protein)
chain: MAVSKVYARSVYDSRGNPTVEVELTTEKGVFRSIVPSGASTGVHEALEMRDEDKSKWMGKGVMNAVNNVNNVIAAAFVKANLDVKDQKAVDDFLLSLDGTANKSKLGANAILGVSMAAARAAAAEKNVPLYQHLADLSKSKTSPYVLPVPFLNVLNGGSHAGGALALQEFMIAPTGAKTFAEAMRIGSEVYHNLKSLTKKRYGASAGNVGDEGGVAPNIQTAEEALDLIVDAIKAAGHDGKVKIGLDCASSEFFKDGKYDLDFKNPESDKSKWLTGVELADMYHSLMKRYPIVSIEDPFAEDDWEAWSHFFKTAGIQIVADDLTVTNPARIATAIEKKAADALLLKVNQIGTLSESIKAAQDSFAANWGVMVSHRSGETEDTFIADLVVGLRTGQIKTGAPARSERLAKLNQLLRIEEELGDKAVYAGENFHHGDKL
notes: N-terminally tagged full-length ORF, expressed in and purified from S. cerevisiae, assayed fresh
B3: Tdh3p (Saccharomyces cerevisiae S288C) (protein)
chain: VRVAINGFGRIGRLVMRIALSRPNVEVVALNDPFITNDYAAYMFKYDSTHGRYAGEVSHDDKHIIVDGKKIATYQERDPANLPWGSSNVDIAIDSTGVFKELDTAQKHIDAGAKKVVITAPSSTAPMFVMGVNEEKYTSDLKIVSNASCTTNCLAPLAKVINDAFGIEEGLMTTVHSLTATQKTVDGPSHKDWRGGRTASGNIIPSSTGAAKAVGKVLPELQGKLTGMAFRVPTVDVSVVDLTVKLNKETTYDEIKKVVKAAAEGKLKGVLGYTEDAVVSSDFLGDSHSSIFDASAGIQLSPKFVKLVSWYDNEYGYSTRVVDLVEHVAKA
notes: tagged full-length ORF, expressed in and purified from S. cerevisiae
B4: Gpm1p (Saccharomyces cerevisiae S288C) (protein)
chain: PKLVLVRHGQSEWNEKNLFTGWVDVKLSAKGQQEAARAGELLKEKKVYPDVLYTSKLSRAIQTANIALEKADRLWIPVNRSWRLNERHYGDLQGKDKAETLKKFGEEKFNTYRRSFDVPPPPIDASSPFSQKGDERYKYVDPNVLPETESLALVIDRLLPYWQDVIAKDLLSGKTVMIAAHGNSLRGLVKHLEGISDADIAKLNIPTGIPLVFELDENLKPSKPSYYLDPEAAAAGAAAVANQGKK
notes: as for B3
B5: Pdc5p (Saccharomyces cerevisiae S288C) (protein)
chain: MSEITLGKYLFERLSQVNCNTVFGLPGDFNLSLLDKLYEVKGMRWAGNANELNAAYAADGYARIKGMSCIITTFGVGELSALNGIAGSYAEHVGVLHVVGVPSISSQAKQLLLHHTLGNGDFTVFHRMSANISETTAMITDIANAPAEIDRCIRTTYTTQRPVYLGLPANLVDLNVPAKLLETPIDLSLKPNDAEAEAEVVRTVVELIKDAKNPVILADACASRHDVKAETKKLMDLTQFPVYVTPMGKGAIDEQHPRYGGVYVGTLSRPEVKKAVESADLILSIGALLSDFNTGSFSYSYKTKNIVEFHSDHIKIRNATFPGVQMKFALQKLLDAIPEVVKDYKPVAVPARVPITKSTPANTPMKQEWMWNHLGNFLREGDIVIAETGTSAFGINQTTFPTDVYAIVQVLWGSIGFTVGALLGATMAAEELDPKKRVILFIGDGSLQLTVQEISTMIRWGLKPYIFVLNNNGYTIEKLIHGPHAEYNEIQGWDHLALLPTFGARNYETHRVATTGEWEKLTQDKDFQDNSKIRMIEVMLPVFDAPQNLVKQAQLTAATNAKQ
notes: as for B1
B6: Pgk1p (Saccharomyces cerevisiae S288C) (protein)
chain: SLSSKLSVQDLDLKDKRVFIRVDFNVPLDGKKITSNQRIVAALPTIKYVLEHHPRYVVLASHLGRPNGERNEKYSLAPVAKELQSLLGKDVTFLNDCVGPEVEAAVKASAPGSVILLENLRYHIEEEGSRKVDGQKVKASKEDVQKFRHELSSLADVYINDAFGTAHRAHSSMVGFDLPQRAAGFLLEKELKYFGKALENPTRPFLAILGGAKVADKIQLIDNLLDKVDSIIIGGGMAFTFKKVLENTEIGDSIFDKAGAEIVPKLMEKAKAKGVEVVLPVDFIIADAFSADANTKTVTDKEGIPAGWQGLDNGPESRKLFAATVAKAKTIVWNGPPGVFEFEKFAAGTKALLDEVVKSSAAGNTVIIGGGDTATVAKKYGVTDKISHVSTGGGASLELLEGKELPGVAFLSEKK
notes: as for B3
B7: Tdh1p (Saccharomyces cerevisiae S288C) (protein)
chain: MIRIAINGFGRIGRLVLRLALQRKDIEVVAVNDPFISNDYAAYMVKYDSTHGRYKGTVSHDDKHIIIDGVKIATYQERDPANLPWGSLKIDVAVDSTGVFKELDTAQKHIDAGAKKVVITAPSSSAPMFVVGVNHTKYTPDKKIVSNASCTTNCLAPLAKVINDAFGIEEGLMTTVHSMTATQKTVDGPSHKDWRGGRTASGNIIPSSTGAAKAVGKVLPELQGKLTGMAFRVPTVDVSVVDLTVKLEKEATYDQIKKAVKAAAEGPMKGVLGYTEDAVVSSDFLGDTHASIFDASAGIQLSPKFVKLISWYDNEYGYSARVVDLIEYVAKA
notes: as for B3
B8: Tdh2p (Saccharomyces cerevisiae S288C) (protein)
chain: VRVAINGFGRIGRLVMRIALQRKNVEVVALNDPFISNDYSAYMFKYDSTHGRYAGEVSHDDKHIIVDGHKIATFQERDPANLPWASLNIDIAIDSTGVFKELDTAQKHIDAGAKKVVITAPSSTAPMFVMGVNEEKYTSDLKIVSNASCTTNCLAPLAKVINDAFGIEEGLMTTVHSMTATQKTVDGPSHKDWRGGRTASGNIIPSSTGAAKAVGKVLPELQGKLTGMAFRVPTVDVSVVDLTVKLNKETTYDEIKKVVKAAAEGKLKGVLGYTEDAVVSSDFLGDSNSSIFDAAAGIQLSPKFVKLVSWYDNEYGYSTRVVDLVEHVAKA
notes: as for B3
B9: Pdc1p (Saccharomyces cerevisiae S288C) (protein)
chain: SEITLGKYLFERLKQVNVNTVFGLPGDFNLSLLDKIYEVEGMRWAGNANELNAAYAADGYARIKGMSCIITTFGVGELSALNGIAGSYAEHVGVLHVVGVPSISAQAKQLLLHHTLGNGDFTVFHRMSANISETTAMITDIATAPAEIDRCIRTTYVTQRPVYLGLPANLVDLNVPAKLLQTPIDMSLKPNDAESEKEVIDTILALVKDAKNPVILADACCSRHDVKAETKKLIDLTQFPAFVTPMGKGSIDEQHPRYGGVYVGTLSKPEVKEAVESADLILSVGALLSDFNTGSFSYSYKTKNIVEFHSDHMKIRNATFPGVQMKFVLQKLLTTIADAAKGYKPVAVPARTPANAAVPASTPLKQEWMWNQLGNFLQEGDVVIAETGTSAFGINQTTFPNNTYGISQVLWGSIGFTTGATLGAAFAAEEIDPKKRVILFIGDGSLQLTVQEISTMIRWGLKPYLFVLNNDGYTIEKLIHGPKAQYNEIQGWDHLSLLPTFGAKDYETHRVATTGEWDKLTQDKSFNDNSKIRMIEIMLPVFDAPQNLVEQAKLTAATNAKQ
notes: as for B1

Tests used:
Assay in all cases: purified protein
Assay type in all cases: biochemical, Saccharomyces cerevisiae
purified protein [1] = substrate: CC(=O)C(=O)O; conditions: standardised reaction buffer, 30 °C
purified protein [2] = substrate: O=C(O)[C@@H](CO)OP(=O)(O)O; conditions: standardised reaction buffer, 30 °C
purified protein [3] = substrate: O=C[C@H](O)COP(=O)(O)O; conditions: standardised reaction buffer, 30 °C
purified protein [4] = substrate: O=C(O)[C@H](O)COP(=O)(O)O; conditions: standardised reaction buffer, 30 °C, direction with ATP as co-substrate

Protein | Km (purified protein [1]) | kcat (purified protein [1]) | Km (purified protein [3]) | kcat (purified protein [3]) | also measured
B1 | 2.92 mM | 9.21 s⁻¹ | – | – | –
B2 | – | – | – | – | Km (purified protein [2]): 104 µM; kcat (purified protein [2]): 19.9 s⁻¹
B3 | – | – | 0.423 (SEM 9.2%) mM | 18.2 s⁻¹ | –
B4 | – | – | – | – | Km (purified protein [2]; reverse reaction (P2G to P3G)): 1410 µM; kcat (purified protein [2]; reverse reaction (P2G to P3G)): 400 s⁻¹
B5 | 7.08 (SEM 5.7%) mM | 10.3 s⁻¹ | – | – | –
B6 | – | – | – | – | Km (purified protein [4]): 4580 µM; kcat (purified protein [4]): 58.6 s⁻¹
B7 | – | – | 0.495 (SEM 7.5%) mM | 19.1 s⁻¹ | –
B8 | – | – | 0.77 mM | 8.63 s⁻¹ | –
B9 | 8.5 (SEM 10%) mM | 12.1 s⁻¹ | – | – | –
